The values that follow come from patent US20110052565A1 (NATIONAL RESEARCH COUNCIL OF CANADA, published 2011).

In test [1] the target is T1, porcine pancreatic α-amylase (porcine, UniProt P00690 16-511).
T1 construct: Bought (Sigma); The source is named only for the ELISA with soluble VHs; the panning and phage ELISA paragraphs say only α-amylase; also called a-amylase
T1 sequence (looked up): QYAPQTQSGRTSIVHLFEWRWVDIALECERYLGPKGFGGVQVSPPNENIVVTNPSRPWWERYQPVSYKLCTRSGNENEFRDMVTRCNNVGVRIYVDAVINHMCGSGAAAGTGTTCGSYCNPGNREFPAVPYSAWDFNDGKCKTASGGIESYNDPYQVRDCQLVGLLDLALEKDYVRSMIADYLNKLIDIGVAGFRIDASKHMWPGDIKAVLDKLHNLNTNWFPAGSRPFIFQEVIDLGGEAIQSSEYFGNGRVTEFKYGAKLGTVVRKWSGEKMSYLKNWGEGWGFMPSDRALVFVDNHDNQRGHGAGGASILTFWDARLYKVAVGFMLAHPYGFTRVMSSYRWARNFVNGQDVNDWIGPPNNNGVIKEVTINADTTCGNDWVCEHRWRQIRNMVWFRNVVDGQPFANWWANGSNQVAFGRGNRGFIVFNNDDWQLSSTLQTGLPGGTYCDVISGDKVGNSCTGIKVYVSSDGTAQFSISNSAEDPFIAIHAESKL
Put plainly: phage ELISA, round 4 of heat denaturation panning; VH displayed on phage; member by Table 2, column R4. Background: In an ELISA, binding on a coated surface is turned into a signal by an enzyme label.

Test [2] addresses T1, porcine pancreatic α-amylase. Put plainly: phage ELISA, round 3 of heat denaturation panning; VH displayed on phage; member by Table 2, column R3. The procedure: For selection by heat denaturation, input phage in a multivalent display format was used (i.e., the phages were produced by using hyperphage for superinfection). The input phage was heated at 80° C. for 10 min, cooled at 4° C. for 20 min, centrifuged at maximum speed for 2 min in a microfuge and the supernatant was added to antigen-coated wells for binding. Three rounds of panning against α-amylase by the heat denaturation method were performed. A non-treatment panning was also carried out in parallel as control. […] Monoclonal Phage ELISA on single colonies was performed (Arbabi-Ghahroudi et al., 2009). ELISA-positive clones were subjected to DNA sequencing to identify their VHs (Arbabi-Ghahroudi et al., 2009). Isoelectric points, pIs, of the VHs were determined using the software Laser gene v6.0 (DNASTAR, Inc., Madison, Wis.).

For test [3], the target named is T2, protein A (UniProt P38507 37-477).
T2 construct: Immobilized unconjugated on a CM5 chip in SPR; used as HRP conjugate in the ELISA; also called protein A/HRP conjugate; horseradish peroxidase-protein A conjugate
Kind of test: SPR (Biacore 3000), protein A immobilized; KD of native VH over KD of heat-denatured/cooled VH, unfolded at 0.5 µM. The procedure: (§1) Immobilizations were carried out at a protein concentration of 50 μg/mL in 10 mM acetate buffer pH 4.5 using amine coupling kit supplied by the manufacturer. AD VHs were passed though Superdex™ 75 column (GE Healthcare) and the monomeric species were collected for refolding efficiency experiments. To obtain refolding efficiency values, VHs were incubated at 85° C. for 20 min at the concentration of 0.5 and 5 μM and were cooled to room temperature for 30 min. The VHs were centrifuged at 16,000 g in a microfuge for 5 min at 22° C. to pellet and remove any possible aggregates. […] The surfaces were washed thoroughly with the running buffer for regeneration. Refolding efficiencies were calculated from the amounts bound at steady state. Data were analyzed with BIAevaluation 4.1 software.
(SPR reads the build-up and loss of mass on a sensor chip optically.)

The target of test [4] is T1, porcine pancreatic α-amylase. Kind of test: ELISA, immobilized porcine pancreatic α-amylase, His6-tagged VH, anti-His-IgG/HRP. As to the method: To assess binding of VHs to a-amylase by ELISA, Maxisorp™ microtiter plates (Nunc) were coated with 100 μL of 10 μg/mL porcine pancreatic α-amylase (Sigma, Oakville, ON, Canada) in PBS overnight at 4° C. After blocking with 3% bovine serum albumin (300 μL) for 2 h at 37° C. and subsequent removal of blocking agent, 100 μL His₆-tagged VHs at concentrations of a few μM were added, followed by incubation for 2 h at 37° C. Wells were washed 5× with PBST and 100 μL rabbit anti-His-IgG/horse radish peroxidase (HRP) conjugate (Bethyl Laboratories, Inc., Montgomery, Tex.) was added at a dilution of 1:5000. The wells were then incubated for 1 h at 37° C. After washing the wells with PBST, 100 μL […] substrate (KPL, Gaithersburg, Md.) was added and the reaction, seen as color development, was stopped after 5 min by adding 100 μL of 1 M phosphoric acid. Absorbance values were measured at a wavelength of 450 nm using a microtiter plate reader. […] Assays were performed in duplicates.

The target of test [5] is T2, protein A. Kind of test: SPR (Biacore 3000), protein A immobilized; KD of native VH over KD of heat-denatured/cooled VH, unfolded at 5 µM. As to the method:
as §1

A further test concerns the target T3, bovine serum albumin (bovine, UniProt P02769 25-607).
T3 construct: also called BSA
Kind of test: ELISA, immobilized BSA, His6-tagged VH detected with anti-His-IgG/HRP (FIG. 9A).

Test [6] concerns the target T1, porcine pancreatic α-amylase. Kind of test: told in the legend of the α-amylase inhibition figure (FIG. 10).
Description: Briefly, the enzyme at a final concentration of 1.5 μg/mL in 0.1% casein, 150 mM NaCl, 2 mM CaCl₂, 50 mM Tris-HCl pH 7.4 was preincubated with various concentrations of purified monomeric anti-α-amylase VHs at room temperature for 1 h (total volume: 50 μL). The mixture was split in two ELISA wells and to each well 75 μL of substrate solution (0.2 mM 2-chloro-4-nitrophenyl maltotrioside, 150 mM NaCl, 2 mM CaCl₂, 50 mM Tris-HCl pH 7.4) was added. […] The progress of reactions was monitored continuously at 25° C. by measuring the change in absorbance of reaction solutions at 405 nm (ΔA405 nm) using a PowerWave 340 microplate spectrophotometer (BioTek Instruments, Inc. Winooski, Vt.). […] The VHs was thus analyzed by ELISA.

T3 sequence (P02769 25-607 limits assumed): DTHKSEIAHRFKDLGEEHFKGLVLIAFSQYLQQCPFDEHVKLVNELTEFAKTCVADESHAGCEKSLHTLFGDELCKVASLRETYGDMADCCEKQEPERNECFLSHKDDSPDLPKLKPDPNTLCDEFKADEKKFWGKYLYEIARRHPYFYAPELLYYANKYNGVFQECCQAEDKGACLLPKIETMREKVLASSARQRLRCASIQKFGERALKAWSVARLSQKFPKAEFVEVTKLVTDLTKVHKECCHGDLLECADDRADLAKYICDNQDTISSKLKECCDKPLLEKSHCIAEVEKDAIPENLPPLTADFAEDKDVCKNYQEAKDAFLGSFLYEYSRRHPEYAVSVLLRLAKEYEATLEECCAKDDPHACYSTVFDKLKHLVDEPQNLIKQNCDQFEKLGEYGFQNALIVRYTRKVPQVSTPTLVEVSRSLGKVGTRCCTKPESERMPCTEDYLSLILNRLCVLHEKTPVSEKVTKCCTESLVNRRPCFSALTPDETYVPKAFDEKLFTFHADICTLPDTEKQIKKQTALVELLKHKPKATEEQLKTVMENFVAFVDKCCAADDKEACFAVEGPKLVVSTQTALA

B1: huVHAm412 (other, not shown: small tags and cut ends)
VH: QVQLVESGGGLIKPGGSLRLSCAASGDMLSAECMGWVRQAPGKGLEWVSAISSSGGSTYYADSVKGRFTISRDNSKNTVYLQMNSLRAEDTAVYYCVAKPYHCAVQGTMVTVSS
notes: amber codon read as Glu in E. coli TG1
On to B1, for which the binding result in test [1] is reported as “binds”.

B2: huVHAm315 (other)
VH: QVQLVESGGGLIKPGGSLRLSCAASGDMFSSEGMAWVRQAPGKGLEWVSAISSSGGSTYYADSVKGRFTISRDNSKNTVYLQMNSLRAEDTAVYYCVAAPTTCTSHNCAEPFRSWGQETMVTVSS
notes: Human VH single-domain antibody, soluble, amber codon replaced by Glu; In the phage ELISA rows the same VH stood on phage (pIII fusion); not shown: C-terminal c-Myc-His6 tag from vector pSJF2H
Turning to B2, the binding result in test [2] was “binds”.

B3: huVHAm311 (other, not shown: small tags and cut ends)
VH: QVQLVESGGGLIKPGGSLRLSCAASGFRVTPECMTWVRQAPGKGLEWVSAISSSGGSTYYADSVKGRFTISRDNSKNTVYLQMNSLRAEDTAVYYCVRHEVECPTEQCPFHCPSWGQGTMVTVSS
notes: as for B1
For B3, the binding result in test [2] is reported as “binds”.

B4: huVHAm316 (other)
VH: QVQLVESGGGLIKPGGSLRLSCAASGDRFTYESMGWVRQAPGKGLEWVSAISSSGGSTYYADSVKGRFTISRDNSKNTVYLQMNSLRAEDTAVYYCVALETACTRPACAHTPRFWGQGTMVTVSS
notes: as for B2
For B4, in test [2], the binding result is “binds”.

B5: huVHAm427 (other)
VH: QVQLVESGGGLIKPGGSLRLSCAASGVTLSPECMAWVRQAPGKGLEWVSAISSSGGSTYYADSVKGRFTISRDNSKNTVYLQMNSLRAEDTAVYYCVSCEGENAFWGQGTMVTASS
notes: as for B2
B5: in test [1], the binding result is “binds”.

B6: huVHAm420 (other, not shown: small tags and cut ends)
VH: QVQLVESGGGLIKPGGSLRLSCAASGDRFSYEDMAWVPQAPGKGLEWVSAISSSGGSTYYADSVKGRFTISRDNSKNTVYLQMNSLRAEDTAVYYCVATEESCPEGNCPPPRRSWGQETMVTVSS
notes: as for B1
For B6, the binding result in test [1] is reported as “binds”.

B7: huVHAm428 (other)
VH: QVQLVESGGGLIKPGGSLRLSCAASGFSLSDDCMGWVRQAPGKGLEWVSAISSSGGSTYYADSVKGRFTISRDNSKNTVYLQMNSLRAEDTAVYYCVTGNQACKHEPWPDEALLLGPRDNVTVSS
notes: as for B2
On to B7, for which the “TRE (%) (ratio of KDn to KDref)” value with protein A [3] was determined as 89%; with protein A [5], 86%. Also, the binding result was “binds” in test [4] and “no binding” with bovine serum albumin.

B8: huVHAm304 (other)
VH: VQLVESGGGLIEPGGSLRLSCAASGFSFSDEGMAWVRQAPGKGLEWVSAISSSGGSTYYADSVKGRFTISRDNSKNTVYLQMNSLRAEDTAVYYCVRLPKQCTSPDCETEVSSWGQRTMVTVSS
notes: Human VH single-domain antibody, soluble, amber codons replaced by Glu; In the phage ELISA rows the same VH stood on phage (pIII fusion); not shown: C-terminal c-Myc-His6 tag from vector pSJF2H
Turning to B8, the “TRE (%) (ratio of KDn to KDref)” value was 99% in the test with protein A [3] and 87% in the test with protein A [5]. Moreover, the binding result with bovine serum albumin is listed as “no binding”.

B9: huVHAm305 (other, not shown: small tags and cut ends)
VH: QVQLVESGGGLIKPGGSLRLSCAASGYRFNNEVMGWVRQAPGKGLEWVSAISSSGGSTYYADSVKGRFTISRDNSKNTVYLQMNSLRAEDTAVYYCVTSTPACNQDKCERWRPSWGQGTMVTASS
notes: as for B1
B9: the binding result in test [2] is “binds”.

B10: huVHAm430 (other, not shown: small tags and cut ends)
VH: QVQLVESGGGLIKPGGSLRLSCAASGDRVSPEDMAWVRQAPGKGLEWVSAISSSGGSTYYADSVKGRFTISRDNSKNTVYLQMNSLRAEDTAVYYCVTSGVPSGSFWGQETMVTVSS
notes: as for B1
Regarding B10, the binding result in test [1] is recorded as “binds”.

B11: huVHAm431 (other)
VH: QVQLVESGGGLIKPGGSLRLSCAASGYTVSSECMGWVRQAPGKGLEWVSAISSSGGSTYYADSVKGRFTISRDNSKNTVYLQMNSLRAEDTAVYYCVRDSKNCHDKDCTRPYCSWGQGTMVTVSS
notes: Human VH single-domain antibody, soluble; In the phage ELISA rows the same VH stood on phage (pIII fusion); not shown: C-terminal c-Myc-His6 tag from vector pSJF2H
With B11, in test [1], the binding result is “binds”.

B12: huVHAm406 (other, not shown: small tags and cut ends)
VH: QVQLVESGGGLIKPGGSLRLSCAASGFSFTPECMGWVRQAPGKGLEWVSAISSSGGSTYYADSVKGRFTISRDNSKNTVYLQMNSLRAEDTAVYYCVGHKNNCPGQGTMVTVSS
notes: as for B1
As for B12, the binding result in test [1] is recorded as “binds”.

B13: huVHAm416 (other)
VH: QVQLVESGGGLIKPGGSLRLSCAASGVSFTDDCMAWVRQAPGKGLEWVSAISSSGGSTYYADSVKGRFTISRDNSKNTVYLQMNSLRAEDTAVYYCVADHTQCRQPECESQLCSWGQGTMVTVSS
notes: as for B2
With B13, the “TRE (%) (ratio of KDn to KDref)” value with protein A [3] amounted to 100%; with protein A [5], 97%. Besides, the results for the binding result (in test [4]; in the test with bovine serum albumin) were “binds” and “no binding”, respectively.

B14: huVHAm302 (other)
VH: QVQLVESGGGLIKPGGSLRLSCAASGDTVSDESMTWVRQAPGKGLEWVSAISSSGGSTYYADSVKGRFTISRDNSKNTVYLQMNSLRAEDTAVYYCVTDNRSCQTSLCTSTTRSWGQGTMVTVSSGSEQKLSEEDLNHHHHHH
modifications: N-terminus pyroglutamine (pyroQ)
notes: Human VH single-domain antibody, soluble with c-Myc-His6 tag, amber codon at position 32 replaced by Glu; In the phage ELISA rows the same VH stood on phage (pIII fusion)
In the case of B14, the binding result in test [6] was “binds”.

B15: huVHAm309 (other)
VH: QVQLVESGGGLIKPGGSLRLSCAASGVNFSNEGMAWVRQAPGKGLEWVSAISSSGGSTYYADSVKGRFTISRDNSKNTVYLQMNSLRAEDTAVYYCVTAQRACANSPCPGSITSWGQETMVTVSS
notes: as for B2
Regarding B15, the “TRE (%) (ratio of KDn to KDref)” value stood at 94% with protein A [3] and 93% with protein A [5]. Besides, the figures for the binding result (in test [4]; with bovine serum albumin) were “binds” and “no binding”, respectively.

B16: huVHAm303 (other, not shown: small tags and cut ends)
VH: QVQLVESGGGLIKPGGSLRLSCAASGFRFSYEVMGWVRQAPGKGLEWVSAISSSGGSTYYADSVKGRFTISRDNSKNTVYLQMNSLRAEDTAVYYCVTPKVDCETHPCRERPYFWGQGTMVTVSS
notes: as for B1
Turning to B16, in test [2], the binding result is on record as “binds”.

B17: huVHAm301 (other, not shown: small tags and cut ends)
VH: QVQLVESGGGLIKPGGSLRLPCAASGFRISHEGMGWVRQAPGKGLEWVSAISSSGGSTYYADSVKGRFTISRDNSKNTAYLQMNSLRAEDTAVYYCVAYNEECTKPSCHTKARSWGQGTMVTVSS
notes: as for B1
Turning to B17, in test [2], the binding result was “binds”.
